Reference: paper PMC7997955, “Bora phosphorylation substitutes in trans for T-loop phosphorylation in Aurora A to promote mitotic entry” (Nature Communications, 2021)
Positions count from the first letter of the chain named. Numbers in names are those of the source. Blank lines part the entries; values can stand above or below the binder they belong to.

Experiments:
Conditions in all cases: both partners purified
[1] = target: T1, fluorescein-labeled Tpx2^1–43 polypeptide (UniProt Q9ULW0 1-43, fluorescein (FITC) label, position not stated); assay: fluorescence polarisation; direct binding: 5 nM FITC-Tpx2^1–43 with increasing AURKA; 25 mM HEPES pH 7.5, 50 mM NaCl, 10 mM MgCl2, 0.1 mg/mL BSA, 0.01% Brij, 3 mM ADP, 2 mM DTT
T1 construct: Tpx2 (Targeting Protein for Xenopus kinesin-like protein 2), first 43 residues; also called FITC-Tpx2^1–43; source: synthetic peptide (Proteogenix)
T1 peptide (looked up): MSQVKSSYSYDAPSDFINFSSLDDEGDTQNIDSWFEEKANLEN

[2] = target: T2, Full-length human AURKA^T288V (human, UniProt O14965 1-403, T288V); assay: SPR; biotinylated AVI-Bora^1–224 or AVI-pBora^1–224 immobilised on a streptavidin chip (Biacore S200), AURKA flowed over; 25 °C; 25 mM HEPES pH 7.5, 150 mM NaCl, 20 mM MgCl2, 1 mM TCEP, 0.01% Brij 35; flow 10 µL/min; mean of n = 2; the paper says the affinities appear under-estimated
T2 construct: non-native residues left at the N-terminus after TEV digestion of the 6xHis-GST fusion; Aurora A kinase (AURKA), human, full length, T288V; Lacks T-loop phosphorylation; MW 45935.52 in the SPR methods; also called AURKA T-loop mutant (T288V); source: E. coli BL21 DE3 pLyS RIL, purified (glutathione sepharose, TEV cleavage, HiTrap SP, Superdex 200); not shown: 6xHis, N-terminal, cleaved; GST, …
T2 sequence: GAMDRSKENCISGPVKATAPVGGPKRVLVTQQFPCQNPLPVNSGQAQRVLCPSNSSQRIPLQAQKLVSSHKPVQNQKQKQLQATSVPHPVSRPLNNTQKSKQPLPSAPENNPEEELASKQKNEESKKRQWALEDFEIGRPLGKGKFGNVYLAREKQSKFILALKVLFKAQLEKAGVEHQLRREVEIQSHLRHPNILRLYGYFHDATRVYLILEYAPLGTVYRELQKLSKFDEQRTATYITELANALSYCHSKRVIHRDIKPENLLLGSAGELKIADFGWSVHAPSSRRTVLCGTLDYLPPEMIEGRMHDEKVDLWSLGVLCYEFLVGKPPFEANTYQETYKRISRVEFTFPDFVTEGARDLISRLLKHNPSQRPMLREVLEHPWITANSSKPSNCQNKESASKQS

[3] = target: T3, Full-length human AURKA^WT (Aurora A kinase) (human, UniProt O14965 1-403, phosphothreonine at T288 (T-loop; 'WT phosphorylated')); assay: as above
T3 construct: non-native residues left at the N-terminus after TEV digestion of the 6xHis-GST fusion; Aurora A kinase (AURKA), human, full length; also called AURA^WT; WT phosphorylated; source: E. coli BL21 DE3 pLyS RIL, purified (glutathione sepharose, TEV cleavage, HiTrap SP, Superdex 200); not shown: 6xHis, N-terminal, cleaved; GST, N-terminal, cleaved
T3 sequence: T2 sequence with V290T

[4] = target: T4, Full-length human AURKA^T288V (human, UniProt O14965 1-403, T288V, not phosphorylated: 0P by intact mass (Supplementary Fig. S3a)); assay: fluorescence polarisation; competitive displacement: FITC-Tpx2^1–43 (5 nM) and AURKA (35 nM) kept constant, unlabeled competitor varied; 25 mM HEPES pH 7.5, 50 mM NaCl, 10 mM MgCl2, 0.1 mg/mL BSA, 0.01% Brij, 3 mM ADP, 2 mM DTT
T4 construct: non-native residues left at the N-terminus after TEV digestion; Aurora A kinase (AURKA), human, full length, T-loop mutant T288V; source: E. coli BL21 DE3 pLysS RIL, purified (glutathione sepharose, TEV cleavage, HiTrap SP, Superdex 200); not shown: 6xHis, N-terminal, cleaved; GST, N-terminal, cleaved
T4 sequence: T2 sequence

fold reduced binding against the other AURKA^T288V mutants [1]: 3 fold
B1: AURKA^([T288V R255A]) (enzyme, human)
chain: T2 sequence with R257A
notes: non-native residues left at the N-terminus after TEV digestion of the 6xHis-GST fusion; Aurora A kinase (AURKA), human, full length, T288V R255A; source: E. coli BL21 DE3 pLyS RIL, purified (glutathione sepharose, TEV cleavage, HiTrap SP, Superdex 200); not shown: 6xHis, N-terminal, cleaved; GST, N-terminal, cleaved

Kd [2]: 11 µM
Kd [3]: ~52 µM
B2: biotinylated AVI-tagged Bora^1–224 (domain or fragment)
chain: not shown
modifications: biotin (on the AVI tag, by BirA)
notes: source: E. coli BL21 DE3 pLyS RIL, purified, biotinylated in vitro with 6xHis-BirA and re-purified (Superdex 200); not shown: AVI, N-terminal, kept; 6xHis, N-terminal, cleaved

Kd [2]: 6 µM
Kd [3]: ~18 µM
B3: biotinylated AVI-tagged pBora^1–224 (phosphorylated by CyclinA2-Cdk2) (domain or fragment)
chain: not shown
modifications: biotin (on the AVI tag, by BirA); phosphorylated by CyclinA2-Cdk2 (average of eight phosphorylations)
notes: As m9, phosphorylated; MW 27440 calculated from an average of eight phosphorylations; not shown: AVI, N-terminal, kept; 6xHis, N-terminal, cleaved

IC50 [4]: 0.68 µM
B4: pBora^(18–120 [S27A T52A]) (domain or fragment)
chain: not shown
modifications: phosphorylated; with ERK 2P and 3P by intact mass, 2 phosphorylations expected (S41, S112) (Supplementary Fig. S6e)
notes: non-native residues left at the N-terminus after TEV digestion; Bora, human, residues 18-120 with S27A and T52A; source: E. coli BL21 DE3 pLysS RIL, purified, then phosphorylated in vitro; not shown: 6xHis, N-terminal, cleaved
